Assay results: paper PMC9482650, “Quantitative fragmentomics allow affinity mapping of interactomes” (Nature Communications, 2022)

Key:
Test in all cases: holdup assay
Design in all cases: key: below the threshold = too weak to quantify, mostly under pKd 3.1 to 4
DLG3_2, Q92796 = molecular target: T1, DLG3_2, Q92796
T1 sequence (Q92796 221-321, limits assumed, looked up): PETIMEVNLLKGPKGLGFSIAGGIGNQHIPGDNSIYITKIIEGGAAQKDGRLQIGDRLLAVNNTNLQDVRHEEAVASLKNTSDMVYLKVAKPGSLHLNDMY

DLG4_1, P78352 = molecular target: DLG4_1, P78352
Sequence of DLG4_1, P78352 (P78352 62-152): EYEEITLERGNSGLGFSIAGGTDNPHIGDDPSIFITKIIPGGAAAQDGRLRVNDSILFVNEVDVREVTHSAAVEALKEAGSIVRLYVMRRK

FRMPD4, Q14CM0 = molecular target: FRMPD4, Q14CM0
Sequence of FRMPD4, Q14CM0 (Q14CM0 67-160): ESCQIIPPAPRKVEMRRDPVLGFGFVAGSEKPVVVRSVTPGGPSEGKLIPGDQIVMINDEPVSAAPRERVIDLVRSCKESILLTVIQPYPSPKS

GRIP2_7, Q9C0E4 = molecular target: GRIP2_7, Q9C0E4
Sequence of GRIP2_7, Q9C0E4 (Q9C0E4 934-1023): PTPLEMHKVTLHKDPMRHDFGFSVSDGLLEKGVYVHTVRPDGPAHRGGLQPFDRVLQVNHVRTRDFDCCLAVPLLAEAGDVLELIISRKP

HTRA1, Q92743 = molecular target: HTRA1, Q92743
Sequence of HTRA1, Q92743 (Q92743 360-477): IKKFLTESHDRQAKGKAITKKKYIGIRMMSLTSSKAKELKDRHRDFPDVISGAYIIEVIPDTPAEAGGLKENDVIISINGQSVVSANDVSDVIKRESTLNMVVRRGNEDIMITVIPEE

HTRA4, P83105 = molecular target: T2, HTRA4, P83105
T2 sequence (P83105 378-476, limits assumed, looked up): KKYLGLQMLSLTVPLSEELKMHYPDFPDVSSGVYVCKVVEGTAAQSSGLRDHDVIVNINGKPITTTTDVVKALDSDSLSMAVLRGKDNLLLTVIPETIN

IL16_3, Q14005 = molecular target: IL16_3, Q14005
Sequence of IL16_3, Q14005 (Q14005 1107-1207): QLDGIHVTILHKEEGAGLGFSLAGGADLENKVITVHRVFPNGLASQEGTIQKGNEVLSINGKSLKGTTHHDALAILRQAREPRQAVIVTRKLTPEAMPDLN

Inadl_3, Q8NI35 = molecular target: Inadl_3, Q8NI35
Sequence of Inadl_3, Q8NI35 (Q8NI35 359-469): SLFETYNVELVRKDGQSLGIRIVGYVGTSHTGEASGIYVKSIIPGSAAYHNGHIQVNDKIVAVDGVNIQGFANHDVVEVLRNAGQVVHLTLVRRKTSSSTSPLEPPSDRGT

Inadl_9, Q8NI35 = molecular target: Inadl_9, Q8NI35
Sequence of Inadl_9, Q8NI35 (Q8NI35 1530-1615): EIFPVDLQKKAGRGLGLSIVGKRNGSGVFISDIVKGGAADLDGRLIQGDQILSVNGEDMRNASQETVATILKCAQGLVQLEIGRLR

LIMK2, P53671 = molecular target: LIMK2, P53671
Sequence of LIMK2, P53671 (P53671 143-248): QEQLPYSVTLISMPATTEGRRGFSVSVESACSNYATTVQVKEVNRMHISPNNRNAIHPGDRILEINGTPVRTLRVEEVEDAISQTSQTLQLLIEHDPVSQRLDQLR

LIN7A, O14910 = molecular target: T3, LIN7A, O14910
T3 sequence (O14910 103-200, limits assumed, looked up): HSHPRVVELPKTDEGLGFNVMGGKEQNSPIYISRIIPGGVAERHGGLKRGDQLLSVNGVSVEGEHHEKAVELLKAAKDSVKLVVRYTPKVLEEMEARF

LNX1_1, Q8TBB1 = molecular target: LNX1_1, Q8TBB1
Sequence of LNX1_1, Q8TBB1 (Q8TBB1 261-371): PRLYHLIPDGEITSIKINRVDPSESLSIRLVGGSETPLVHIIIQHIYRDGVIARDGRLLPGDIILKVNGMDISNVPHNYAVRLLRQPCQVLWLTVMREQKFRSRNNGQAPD

MAGI1_2, Q96QZ7 = molecular target: MAGI1_2, Q96QZ7
Sequence of MAGI1_2, Q96QZ7 (Q96QZ7 456-580): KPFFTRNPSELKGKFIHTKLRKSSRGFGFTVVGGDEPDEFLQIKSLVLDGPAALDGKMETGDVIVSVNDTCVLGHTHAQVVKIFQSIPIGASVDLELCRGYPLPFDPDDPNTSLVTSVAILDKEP

MAGI2_3, Q86UL8 = molecular target: MAGI2_3, Q86UL8
Sequence of MAGI2_3, Q86UL8 (Q86UL8 600-682): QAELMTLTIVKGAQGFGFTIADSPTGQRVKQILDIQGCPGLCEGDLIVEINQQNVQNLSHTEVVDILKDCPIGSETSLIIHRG

MAGI2_5, Q86UL8 = molecular target: MAGI2_5, Q86UL8
Sequence of MAGI2_5, Q86UL8 (Q86UL8 915-1017): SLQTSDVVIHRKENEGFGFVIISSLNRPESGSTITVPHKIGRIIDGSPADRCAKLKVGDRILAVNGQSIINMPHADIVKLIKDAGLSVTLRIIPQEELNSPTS

MAST1, Q9Y2H9 = molecular target: MAST1, Q9Y2H9
Sequence of MAST1, Q9Y2H9 (Q9Y2H9 962-1065): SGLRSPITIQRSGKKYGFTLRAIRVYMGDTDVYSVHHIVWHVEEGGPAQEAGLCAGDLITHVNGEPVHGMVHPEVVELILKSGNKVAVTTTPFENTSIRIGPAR

MPP7, Q5T2T1 = molecular target: T4, MPP7, Q5T2T1
T4 sequence (Q5T2T1 134-230, limits assumed, looked up): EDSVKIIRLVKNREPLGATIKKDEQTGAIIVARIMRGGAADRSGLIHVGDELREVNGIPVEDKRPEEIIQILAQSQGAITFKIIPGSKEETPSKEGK

NHERF3_4, Q5T2W1 = molecular target: T5, NHERF3_4, Q5T2W1
T5 sequence (Q5T2W1 373-468, limits assumed, looked up): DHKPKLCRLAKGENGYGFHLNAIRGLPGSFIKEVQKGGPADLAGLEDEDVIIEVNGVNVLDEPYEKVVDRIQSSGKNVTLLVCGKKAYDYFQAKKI

NHERF4_2, Q86UT5 = molecular target: NHERF4_2, Q86UT5
Sequence of NHERF4_2, Q86UT5 (Q86UT5 220-308): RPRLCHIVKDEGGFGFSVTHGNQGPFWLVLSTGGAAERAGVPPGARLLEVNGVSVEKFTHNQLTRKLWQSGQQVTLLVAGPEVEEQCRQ

PARD3B_1, Q8TEW8 = molecular target: T6, PARD3B_1, Q8TEW8
T6 sequence (Q8TEW8 196-299, limits assumed, looked up): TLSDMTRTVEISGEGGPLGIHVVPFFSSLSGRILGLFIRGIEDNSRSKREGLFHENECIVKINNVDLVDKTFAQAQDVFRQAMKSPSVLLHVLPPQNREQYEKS

PDZRN3_1, Q9UPQ7 = molecular target: T7, PDZRN3_1, Q9UPQ7
T7 sequence (Q9UPQ7 244-349, limits assumed, looked up): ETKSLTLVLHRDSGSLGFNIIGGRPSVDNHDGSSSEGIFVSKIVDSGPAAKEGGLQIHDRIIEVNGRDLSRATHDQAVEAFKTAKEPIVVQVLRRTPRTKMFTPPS

PICK1, Q9NRD5 = molecular target: PICK1, Q9NRD5
Sequence of PICK1, Q9NRD5 (Q9NRD5 17-115): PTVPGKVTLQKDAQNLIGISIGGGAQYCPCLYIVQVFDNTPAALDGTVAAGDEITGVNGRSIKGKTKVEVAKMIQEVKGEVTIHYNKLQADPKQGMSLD

RAPGEF6, Q8TEU7 = molecular target: T8, RAPGEF6, Q8TEU7
T8 sequence (Q8TEU7 525-625, limits assumed, looked up): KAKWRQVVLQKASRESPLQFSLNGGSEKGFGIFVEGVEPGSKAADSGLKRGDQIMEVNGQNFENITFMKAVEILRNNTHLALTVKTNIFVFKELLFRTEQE

SCRIB_3, Q14160 = molecular target: SCRIB_3, Q14160
Sequence of SCRIB_3, Q14160 (Q14160 999-1103): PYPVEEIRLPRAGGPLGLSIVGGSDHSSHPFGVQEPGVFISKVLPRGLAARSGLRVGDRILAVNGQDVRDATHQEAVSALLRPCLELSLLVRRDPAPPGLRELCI

SNTG1, Q9NSN8 = molecular target: T9, SNTG1, Q9NSN8
T9 sequence (Q9NSN8 52-150, limits assumed, looked up): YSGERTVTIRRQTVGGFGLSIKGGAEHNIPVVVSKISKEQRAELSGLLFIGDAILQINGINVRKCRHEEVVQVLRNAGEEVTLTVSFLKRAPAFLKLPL

SNTG2, Q9NY99 = molecular target: T10, SNTG2, Q9NY99
T10 sequence (Q9NY99 68-166, limits assumed, looked up): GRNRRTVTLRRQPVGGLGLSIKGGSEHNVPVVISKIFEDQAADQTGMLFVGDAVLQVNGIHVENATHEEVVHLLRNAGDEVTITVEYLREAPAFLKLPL

NHERF2_2, Q15599 = molecular target: NHERF2_2, Q15599
Sequence of NHERF2_2, Q15599 (Q15599 142-238): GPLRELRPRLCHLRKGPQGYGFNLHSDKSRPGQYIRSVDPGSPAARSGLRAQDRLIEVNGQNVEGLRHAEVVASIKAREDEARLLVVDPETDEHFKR

[1] = plain residues with an end cap or a label only (N-terminal biotin on a linker: ttds)
[2] = plain residues with an end cap or a label only (N-terminal biotin on a linker: ahx)

B1: CFTR, P13569 (peptide)
chain: TEEEVQDTRL
For B1, the pKd (DLG3_2, Q92796; [1]) was “below the threshold”, the pKd (DLG4_1, P78352; [1]) was “below the threshold” and the pKd (FRMPD4, Q14CM0; [1]) was 4.66. The pKd (GRIP2_7, Q9C0E4; [1]) was “below the threshold”, the pKd (HTRA1, Q92743; [1]) was “below the threshold” and the pKd (HTRA4, P83105; [1]) was “below the threshold”. For the same binder, the pKd (IL16_3, Q14005; [1]) was “below the threshold”, the pKd (Inadl_3, Q8NI35; [1]) was “below the threshold” and the pKd (Inadl_9, Q8NI35; [1]) was “below the threshold”. The pKd (LIMK2, P53671; [1]) was “below the threshold”, the pKd (LIN7A, O14910; [1]) was “below the threshold” and the pKd (LNX1_1, Q8TBB1; [1]) was “below the threshold”. For the same binder, the pKd (MAGI1_2, Q96QZ7; [1]) was “below the threshold”, the pKd (MAGI2_3, Q86UL8; [1]) was “below the threshold” and the pKd (MAGI2_5, Q86UL8; [1]) was “below the threshold”. The pKd (MAST1, Q9Y2H9; [1]) was 4.77, the pKd (MPP7, Q5T2T1; [1]) was “below the threshold” and the pKd (NHERF3_4, Q5T2W1; [1]) was 4.08. The pKd (NHERF4_2, Q86UT5; [1]) was “below the threshold”, the pKd (PARD3B_1, Q8TEW8; [1]) was 3.95 and the pKd (PDZRN3_1, Q9UPQ7; [1]) was 4.01. For the same binder, the pKd (PICK1, Q9NRD5; [1]) was “below the threshold”, the pKd (RAPGEF6, Q8TEU7; [1]) was “below the threshold” and the pKd (SCRIB_3, Q14160; [1]) was “below the threshold”. The pKd (SNTG1, Q9NSN8; [1]) was “below the threshold” and the pKd (SNTG2, Q9NY99; [1]) was 4.37.

B2: KCNA5, P22460 (peptide)
chain: CLDTSRETDL
Binder B2 has a pKd (DLG3_2, Q92796; [1]) of 4.35, a pKd (DLG4_1, P78352; [1]) of 3.84 and a pKd (FRMPD4, Q14CM0; [1]) of 3.49. For the same binder, the pKd (GRIP2_7, Q9C0E4; [1]) was “below the threshold”, the pKd (HTRA1, Q92743; [1]) was “below the threshold” and the pKd (HTRA4, P83105; [1]) was “below the threshold”. For the same binder, the pKd (IL16_3, Q14005; [1]) was “below the threshold”, the pKd (Inadl_3, Q8NI35; [1]) was “below the threshold” and the pKd (Inadl_9, Q8NI35; [1]) was “below the threshold”. The pKd (LIMK2, P53671; [1]) was “below the threshold”, the pKd (LIN7A, O14910; [1]) was “below the threshold” and the pKd (LNX1_1, Q8TBB1; [1]) was 3.91. The pKd (MAGI1_2, Q96QZ7; [1]) was “below the threshold”, the pKd (MAGI2_3, Q86UL8; [1]) was “below the threshold” and the pKd (MAGI2_5, Q86UL8; [1]) was “below the threshold”. The pKd (MAST1, Q9Y2H9; [1]) was 4.91, the pKd (MPP7, Q5T2T1; [1]) was “below the threshold” and the pKd (NHERF2_2, Q15599; [1]) was 4.49. The pKd (NHERF3_4, Q5T2W1; [1]) was “below the threshold”, the pKd (NHERF4_2, Q86UT5; [1]) was “below the threshold” and the pKd (PARD3B_1, Q8TEW8; [1]) was “below the threshold”. The pKd (PDZRN3_1, Q9UPQ7; [1]) was 4.38, the pKd (PICK1, Q9NRD5; [1]) was “below the threshold” and the pKd (RAPGEF6, Q8TEU7; [1]) was “below the threshold”. The pKd (SCRIB_3, Q14160; [1]) was 5.23, the pKd (SNTG1, Q9NSN8; [1]) was 4.6 and the pKd (SNTG2, Q9NY99; [1]) was 4.45.

B3: PDLIM7, Q9NR12;Q9NR12-1 (peptide)
chain: LCKSHAFSHV
With B3 the pKd (DLG3_2, Q92796; [2]) was “below the threshold”, the pKd (DLG4_1, P78352; [2]) was “below the threshold” and the pKd (FRMPD4, Q14CM0; [2]) was “below the threshold”. The pKd (GRIP2_7, Q9C0E4; [2]) was “below the threshold”, the pKd (HTRA4, P83105; [2]) was “below the threshold” and the pKd (IL16_3, Q14005; [2]) was “below the threshold”. The pKd (Inadl_3, Q8NI35; [2]) was “below the threshold”, the pKd (Inadl_9, Q8NI35; [2]) was “below the threshold” and the pKd (LIMK2, P53671; [2]) was “below the threshold”. The pKd (LIN7A, O14910; [2]) was “below the threshold”, the pKd (MAGI2_3, Q86UL8; [2]) was “below the threshold” and the pKd (MPP7, Q5T2T1; [2]) was “below the threshold”. The pKd (NHERF2_2, Q15599; [2]) was “below the threshold”, the pKd (NHERF3_4, Q5T2W1; [2]) was “below the threshold” and the pKd (NHERF4_2, Q86UT5; [2]) was “below the threshold”. The pKd (PARD3B_1, Q8TEW8; [2]) was “below the threshold”, the pKd (PDZRN3_1, Q9UPQ7; [2]) was “below the threshold” and the pKd (PICK1, Q9NRD5; [2]) was “below the threshold”. The pKd (RAPGEF6, Q8TEU7; [2]) was “below the threshold”, the pKd (SCRIB_3, Q14160; [2]) was “below the threshold” and the pKd (SNTG1, Q9NSN8; [2]) was “below the threshold”. For the same binder, the pKd (SNTG2, Q9NY99; [2]) was “below the threshold”.

B4: RAPGEF2, Q9Y4G8 (peptide)
chain: EDEDEQVSAV
For B4, the pKd (DLG3_2, Q92796; [2]) was 3.87, the pKd (DLG4_1, P78352; [2]) was 3.59 and the pKd (FRMPD4, Q14CM0; [2]) was “below the threshold”. For the same binder, the pKd (GRIP2_7, Q9C0E4; [2]) was “below the threshold”, the pKd (HTRA1, Q92743; [2]) was 4.18 and the pKd (HTRA4, P83105; [2]) was “below the threshold”. For the same binder, the pKd (IL16_3, Q14005; [2]) was “below the threshold”, the pKd (Inadl_3, Q8NI35; [2]) was “below the threshold” and the pKd (Inadl_9, Q8NI35; [2]) was “below the threshold”. The pKd (LIMK2, P53671; [2]) was “below the threshold”, the pKd (LIN7A, O14910; [2]) was “below the threshold” and the pKd (LNX1_1, Q8TBB1; [2]) was “below the threshold”. The pKd (MAGI1_2, Q96QZ7; [2]) was “below the threshold”, the pKd (MAGI2_3, Q86UL8; [2]) was 4.23 and the pKd (MAGI2_5, Q86UL8; [2]) was 4.46. The pKd (MAST1, Q9Y2H9; [2]) was 4.22, the pKd (MPP7, Q5T2T1; [2]) was “below the threshold” and the pKd (NHERF2_2, Q15599; [2]) was 3.68. The pKd (NHERF3_4, Q5T2W1; [2]) was “below the threshold”, the pKd (NHERF4_2, Q86UT5; [2]) was “below the threshold” and the pKd (PARD3B_1, Q8TEW8; [2]) was “below the threshold”. For the same binder, the pKd (PDZRN3_1, Q9UPQ7; [2]) was “below the threshold”, the pKd (PICK1, Q9NRD5; [2]) was “below the threshold” and the pKd (RAPGEF6, Q8TEU7; [2]) was “below the threshold”. The pKd (SCRIB_3, Q14160; [2]) was “below the threshold”, the pKd (SNTG1, Q9NSN8; [2]) was 4.29 and the pKd (SNTG2, Q9NY99; [2]) was “below the threshold”.
